# According to IntAct's records for PubMed 25126958:
# B1: Cell division control protein 45 (Saccharomyces cerevisiae), Q08032 (parent)
# chain: MYYGISQFSEAYNKILRNSSSHSSCQLVIFVSCLNIDALCATKMLSLLFKKQLVQSQIVPIFGYSELRRHYSQLDDNINSLLLVGFGGVIDLEAFLEIDPQEYVIDTDEKSGEQSFRRDIYVLDAHRPWNLDNIFGSQIIQCFDDGTVDDTLGEQKEAYYKLLELDEESGDDELSGDENDNNGGDDEATDADEVTDEDEEDEDETISNKRGNSSIGPNDLSKRKQRKKQIHEYEGVLEEYYSQGTTVVNSISAQIYSLLSAIGETNLSNLWLNILGTTSLDIAYAQVYNRLYPLLQDEVKRLTPSSRNSVKTPDTLTLNIQPDYYLFLLRHSSLYDSFYYSNYVNAKLSLWNENGKKRLHKMFARMGIPLSTAQETWLYMDHSIKRELGIIFDKNLDRYGLQDIIRDGFVRTLGYRGSISASEFVEALTALLEVGNSTDKDSVKINNDNNDDTDGEEEEDNSAQKLTNLRKRWVSNFWLSWDALDDRKVELLNRGIQLAQDLQRAIFNTGVAILEKKLIKHLRIYRLCVLQDGPDLDLYRNPLTLLRLGNWLIECCAESEDKQLLPMVLASIDENTDTYLVAGLTPRYPRGLDTIHTKKPILNNFSMAFQQITAETDAKVRIDNFESSIIEIRREDLSPFLEKLTLSGLL
# partner: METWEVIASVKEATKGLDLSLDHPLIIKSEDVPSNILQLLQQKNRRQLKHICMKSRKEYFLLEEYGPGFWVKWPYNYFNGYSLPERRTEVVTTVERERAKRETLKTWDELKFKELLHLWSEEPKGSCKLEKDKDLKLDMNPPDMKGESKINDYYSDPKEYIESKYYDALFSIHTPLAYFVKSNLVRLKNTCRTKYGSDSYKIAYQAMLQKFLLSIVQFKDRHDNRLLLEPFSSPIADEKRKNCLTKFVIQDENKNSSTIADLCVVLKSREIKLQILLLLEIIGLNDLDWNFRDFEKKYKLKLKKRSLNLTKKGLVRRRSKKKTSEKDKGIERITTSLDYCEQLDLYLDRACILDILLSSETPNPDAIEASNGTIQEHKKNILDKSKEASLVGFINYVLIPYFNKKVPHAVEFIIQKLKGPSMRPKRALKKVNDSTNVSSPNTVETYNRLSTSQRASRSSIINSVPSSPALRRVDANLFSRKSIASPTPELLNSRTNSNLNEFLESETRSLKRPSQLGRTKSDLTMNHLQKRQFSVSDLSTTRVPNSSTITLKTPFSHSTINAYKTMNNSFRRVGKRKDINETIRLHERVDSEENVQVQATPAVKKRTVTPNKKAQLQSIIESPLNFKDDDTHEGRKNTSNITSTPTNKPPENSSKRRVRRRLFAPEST
# Variants of: B1
# Conditions: with sld3_yeast SLD3, P53135
row,Variant,effect of a mutation on the interaction
1,D91N;D124N;D149N;D150N,disrupting interaction strength
